Source: patent publication US20090304687A1, “METHODS OF USING CD40 BINDING AGENTS” (Seattle Genetics , Inc., priority 2005, published 2009)
Entries after “also recorded” stand apart in the source; their conditions may differ.

Tests used:
[1] = U.S. Pat. No. 6,838,261; cited from earlier work
[2] = molecular target: CD40 (Homo sapiens, UniProt P25942); assay: Binding of variant antibodies to CD40 immobilized on microassay plates; parameters: Binding Data 1 / Binding Data 2 / Binding Data 3: unit not given here
Experimental: Antibodies constructed using these variant light and heavy chain variable domains were analyzed for binding activity. Each antibody was diluted to equivalent concentrations, and then serially diluted. The diluted antibodies were assayed for binding to CD40 immobilized on microassay plates. Affinity binding data for the variant antibodies are shown below in Table 3.

[3] = molecular target: CD40 and CD40L (Homo sapiens, UniProt P25942); details: literature; cited from earlier work
[4] = system: human peripheral B cells; details: Paulie et al., 1989; cited from earlier work
[5] = system: Ramos tumor cells; assay: SCID mouse lymphoma xenograft model, intravenous Ramos cells, survival; type: in vivo; details: 4 mg/kg/dose i.p. two times per week, five doses, 10 mice/group
Experimental: The efficacy of the humanized CD40 antibody on survival of tumor-bearing mice was assayed in a SCID mouse lymphoma xenograft model. SCID mice (10/group) were inoculated intravenously with one million Ramos tumor cells three days prior to antibody treatment. Mice were treated with murine or humanized CD40 antibody, or an Ig control, administered intraperitoneally two times per week (4 mg/kg/dose) for a total of five doses. The mouse cages were examined daily for mortality.

[6] = system: Ramos tumor cells; assay: SCID mouse lymphoma xenograft model, subcutaneous Ramos tumor growth; type: in vivo, SCID mice; details: 4 mg/kg/dose i.p. 3 times per week, start 13 days after implant, 14-day study period
Experimental: The anti-tumor activity of the humanized CD40 antibody was assayed in a SCID mouse lymphoma xenograft model. Five million Ramos tumor cells were injected subcutaneously into SCID mice (10/group) thirteen days prior to starting drug treatment. Murine CD40 antibody or the humanized S2C6 was given intra-peritoneally 3 times per week (4 mg/kg/dose) with 8 or 5 doses administered. Mice were examined for tumor growth, and tumor volume was measured weekly during the 14-day study period. The results in FIG. 4 show a nearly 9-fold increase in the growth of tumors in control mice, whereas over the same time period, tumor growth in mice treated with either murine CD40 antibody or humanized S2C6 was negligible.

[7] = system: IM-9 cells; assay: IM-9 disseminated xenograft model, survival; type: in vivo, SCID mice; details: data not shown
Experimental: Briefly IM-9 cells (1×10^6 per mouse) were introduced intravenously into SCID mice in a disseminated xenograft model. Animals were treated 3 days post tumor cell injection with either SGN-40(4.0 mg/kg, q2d x9, ip) or prednisone (0.15 mg/kg, qld x5, po) alone, or in combination. Survival data was plotted using a Kaplan-Meier curve (data not shown).

[8] = system: Ramos cells; assay: Bid upregulation and PARP/caspase-3 cleavage in Ramos cells, western blot; type: cell-based
Experimental: In a further study, Ramos cells (2% FBS) were treated with cross-linked humanized CD40 antibody or control hIgG over a 72 hr time course ([…]). Normalized protein extracts were analyzed by western blotting analysis for the pro-apoptotic Bcl-2 family member Bid. […] Referring to FIG. 3B, degradation of the caspase-3/7 substrate poly(ADP-ribose) polymerase (cleaved-PARP) was monitored over time by western blotting with an antibody recognizing PARP cleaved at Asp214. Consistent with the apoptosis-inducing activity of the humanized CD40 antibody, cleavage of caspase-3 and its downstream substrate poly (ADP-ribose) polymerase was detected in NHL cell lines. Antibody-mediated signaling was qualitatively similar to that mediated by trimeric recombinant humanized CD40 ligand (rhCD40L) (data not shown). However, the overall magnitude of signaling was lower with the humanized CD40 antibody compared to rhCD40L, consistent with the partial agonistic properties of SGN-40.

[9] = Phase I escalated dosing study in multiple myeloma patients, adverse events; type: in vivo, human
Experimental: An open-label, multi-dose, single arm, Phase I protocol initiated at five clinical sites. Initially, enrolled patients, diagnosed with multiple myeloma, received weekly intravenous infusions of a humanized CD40 antibody (hu sgn-0) with a cohort-specific dose level of 0.5, 1, 2 and 4 mg/kg/wk. […] Cohort specific doses of 3, 4, 6 and 8 mg/kg/week were used. The patient eligibility criteria included: patients must have failed at least two prior systemic therapies; at least four weeks since chemotherapy; patients who experience a minimal response (MR) or greater are eligible for a second cycle of therapy.
Patients were monitored for adverse events. […] The drug-loading period reduced the first-dose cytokine release syndrome.

[10] = system: Ramos cells; assay: In vitro signaling in Ramos cells, western blot; type: cell-based; details: 2% serum, antibody cross-linked with anti-human IgG, 15 min
Experimental: Humanized anti-CD40 antibody (Hu sgn-0; also referred to as SGN-40) binding to CD40^+ NHL cells activates signaling through the ERK1/2 MAP Kinase, p38 MAP Kinase, and NFkB pathways. Ramos cells (cultured in 2% serum) were stimulated with the humanized CD40 antibody cross-linked (XL) with anti-human IgG for 15 min. Activation of signaling was detected by western blot analysis with antibodies recognizing phosphorylation of ERK1/2 (Thr202/Tyr204), p38 (ThrlSO/Tyr182), and AKT (Ser473). NFkB activation was detected by measuring the degradation of IkB-a protein.

[11] = Pharmacokinetics of SGN-40 in patients with multiple myeloma; type: in vivo, human; details: for AUC0-50: Days 0 to 50, 1 compartment model fit; for T ½: after the last infusion, 1 compartment model fit; for Day 36 Cmin: trough 7 days after last dose; for Day 29 Cmax: serum, after last dose, mean ± SD
Experimental: The humanized CD40 antibody, SGN-40, was administered twice during the first week and once a week […] for the next 4 weeks to patients with multiple myeloma. […] The peak serum concentration (Cmax) of SGN-40 observed following the last dose on Day 29 and the subsequent trough levels 7 days later on Day 36 are shown for each cohort in Table 6. […] (n/a means not applicable.) […] Data are presented as the mean±standard deviation (N>3) with the exception of Cohort I Day 36 Cmin (N=2), and Cohort II, T1/2 and AUC0-50 (N-1). The patients maintained a plasma SGN-40 concentration of at least about 10 micrograms/ml.

[12] = system: Ramos cells; assay: In vitro drug combinations with SGN-40, 3H-thymidine proliferation, Combination Index; type: cell-based
Experimental: Cells were treated for 72 hours, then labeled with ^3H-thymidine for 4 hours to measure proliferation rates. Dose response curves of drugs alone and in combination with the humanized CD40 antibody were reduced in Excel, and Combination Indices (CI) determined using the Calcusyn analysis package (Biosoft). […] CI values equal to 1.0 indicate an additive integration. For these studies, n=3 unless otherwise indicated.

[13] = molecular target: CD40 immobilized on microassay plates (UniProt P25942 21-193, limits assumed); assay: serially diluted antibody on CD40 immobilized on microassay plates
Experimental: Antibodies constructed using these variant light and heavy chain variable domains were analyzed for binding activity. Each antibody was diluted to equivalent concentrations, and then serially diluted. The diluted antibodies were assayed for binding to CD40 immobilized on microassay plates.

CD40, sequence (P25942 21-277): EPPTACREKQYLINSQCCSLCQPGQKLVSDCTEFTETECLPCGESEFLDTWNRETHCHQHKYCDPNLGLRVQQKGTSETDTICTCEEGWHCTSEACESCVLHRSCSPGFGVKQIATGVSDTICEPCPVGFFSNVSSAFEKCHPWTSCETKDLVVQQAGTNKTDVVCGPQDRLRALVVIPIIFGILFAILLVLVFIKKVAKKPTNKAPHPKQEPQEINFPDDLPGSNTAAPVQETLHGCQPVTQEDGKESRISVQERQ
CD40 immobilized on microassay plates, sequence (P25942 21-193 limits assumed): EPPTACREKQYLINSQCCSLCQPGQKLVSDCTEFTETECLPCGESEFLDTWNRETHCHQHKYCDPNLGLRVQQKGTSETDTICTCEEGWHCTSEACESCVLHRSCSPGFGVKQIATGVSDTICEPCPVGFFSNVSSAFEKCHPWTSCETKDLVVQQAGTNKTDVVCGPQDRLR
CD40 and CD40L, sequence (P25942 21-277): as the sequence (P25942 21-277) above

B1: SGN-14: parent murine monoclonal CD40 antibody (donor), heavy SEQ ID NO: 1, light SEQ ID NO: 12; ATCC PTA-110 (antibody, V domains shown)
VH: EVQLQQSGPDLVKPGASVKISCKASGYSFTGYYIHWVKQSHGKSLEWIGRVIPNNGGTSYNQKFKGKAILTVDKSSSTAYMELRSLTSEDSAVYYCAREGIYWWGHGTTLTVS
VL: DVVVTQTPLSLPVSLGAQASISCRSSQSLVHSNGNTFLHWYLQKPGQSPKLLIYTVSNRFSGVPDRFSGSGSGTDFTLKISRVEAEDLGVYFCSQTTHVPWTFGGGTKLEIQR
modifications: MusMusculus
anti-neoplastic activity in vivo [1]: anti-neoplastic activity in vivo
Binding Data 3 ([2]; affinity binding data, serially diluted antibody on immobilized CD40): 1.16
binding activity compared with the parent murine antibody ([2]; in words): approaching that of the parent murine antibody; also recorded: more closely approaching that of the parent murine antibody
effect on the interaction between CD40 and CD40L [3]: can increase the interaction between CD40 and CD40L
activity on human peripheral B cells (primary B cell proliferation) [4]: stimulate primary B cell proliferation in a dose dependent manner
mice alive 90 days after tumor implant [5]: eight of the ten
tumor growth [6]: negligible

B2: hu sgn-0 (antibody, V domains shown)
VH: EVQLVESGGGLVQPGGSLRLSCAASGYSFTGYYIHWVRQAPGKGLEWVARVIPNNGGTSYNQKFKGRFTISRDNSKNTLYLQMNSLRAEDTAVYYCAREGIYWWGQGTLVTVS
VL: DIQMTQSPSSLSASVGDRVTITCRSSQSLVHSNGNTFLHWYQQKPGKAPKLLIYTVSNRFSGVPSRFSGSGSGTDFTLTISSLQPEDFATYYCSQTTHVPWTFGQGTKVEIKR
notes: also called SGN-40; Template
survival ([7]; SGN-40 4.0 mg/kg q2d x9 ip, 3 days post tumor cell injection): similarly effective in promoting survival
efficacy with or without prednisone ([7]; prednisone 0.15 mg/kg qld x5 po): essentially the same in the presence or absence of prednisone
cleavage of caspase-3 and poly (ADP-ribose) polymerase ([8]; NHL cell lines, western blot): detected
Bid protein ([8]; Ramos cells 2% FBS, cross-linked antibody, 72 hr time course, 1.0 mg/ml mAb): upregulated Bid
overall magnitude of signaling compared to rhCD40L ([8]; data not shown): lower
symptoms of first dose-associated cytokine release after amended protocol (intra-patient dose escalation) ([9]; drug-loading period, Table 5 schema): markedly reduced
antitumor activity ([9]; low doses tested thus far, multiple myeloma patients): preliminary evidence for antitumor activity
TNF-alpha levels in the plasma ([9]; multiple myeloma patients): elevated following the first infusion only
cytokine release ([9]; multiple myeloma patients): appeared to trigger cytokine release
adverse event with the first dose ([9]; weekly i.v. infusion, 4 mg/kg level, multiple myeloma patients): Grade 3 cytokine release syndrome
AKT signaling [10]: modestly elevated
AUC0-50 ([11]; Cohort I (1,1,2,3,3,3)): 653.93 ± 154.65 µg·days/mL
T ½ ([11]; Cohort I (1,1,2,3,3,3)): 64.1 ± 25.9 h
Day 36 Cmin ([11]; Cohort I (1,1,2,3,3,3), N=2): 9.94 µg/mL
Day 29 Cmax ([11]; Cohort I (Day 1/4/8/15/22/29: 1,1,2,3,3,3)): 45.40 ± 14.31 µg/mL
AUC0-50 ([11]; Cohort II (1,1,2,4,4,4)): 2086.02 µg·days/mL
T ½ ([11]; Cohort II (1,1,2,4,4,4)): 111 h
Day 36 Cmin ([11]; Cohort II (1,1,2,4,4,4)): 69.93 ± 14.08 µg/mL
Day 29 Cmax ([11]; Cohort II (Day 1/4/8/15/22/29: 1,1,2,4,4,4)): 143.00 ± 27.78 µg/mL
AUC0-50 ([11]; Cohort III (1,1,2,4,6,6)): 1988.88 ± 439.74 µg·days/mL
T ½ ([11]; Cohort III (1,1,2,4,6,6)): 92.4 ± 32.9 h
Day 36 Cmin ([11]; Cohort III (1,1,2,4,6,6)): 41.57 ± 19.22 µg/mL
Day 29 Cmax ([11]; Cohort III (Day 1/4/8/15/22/29: 1,1,2,4,6,6)): 149.25 ± 29.34 µg/mL
AUC0-50 ([11]; Cohort IV (1,1,2,4,6,8)): 3441.73 ± 1382.79 µg·days/mL
T ½ ([11]; Cohort IV (1,1,2,4,6,8)): 129 ± 44.2 h
Day 36 Cmin ([11]; Cohort IV (1,1,2,4,6,8)): 112.84 ± 50.40 µg/mL
Day 29 Cmax ([11]; Cohort IV (Day 1/4/8/15/22/29: 1,1,2,4,6,8)): 244.25 ± 96.00 µg/mL
plasma SGN-40 concentration maintained ([11]; multiple myeloma patients): at least 10 micrograms/ml
effect on activity of chemotherapeutic agents [12]: enhances the activity of several chemotherapeutic agents
mice alive 90 days after tumor implant [5]: all ten
tumor growth [6]: negligible
Binding Data 1 [13]: 75.3
Binding Data 2 [13]: 75.3
